Assay results as given in publication PMC4883770.

Biological target: Flag-epitope tagged CncC (Drosophila melanogaster) (UniProt P20482)
Sequence (P20482 whole entry): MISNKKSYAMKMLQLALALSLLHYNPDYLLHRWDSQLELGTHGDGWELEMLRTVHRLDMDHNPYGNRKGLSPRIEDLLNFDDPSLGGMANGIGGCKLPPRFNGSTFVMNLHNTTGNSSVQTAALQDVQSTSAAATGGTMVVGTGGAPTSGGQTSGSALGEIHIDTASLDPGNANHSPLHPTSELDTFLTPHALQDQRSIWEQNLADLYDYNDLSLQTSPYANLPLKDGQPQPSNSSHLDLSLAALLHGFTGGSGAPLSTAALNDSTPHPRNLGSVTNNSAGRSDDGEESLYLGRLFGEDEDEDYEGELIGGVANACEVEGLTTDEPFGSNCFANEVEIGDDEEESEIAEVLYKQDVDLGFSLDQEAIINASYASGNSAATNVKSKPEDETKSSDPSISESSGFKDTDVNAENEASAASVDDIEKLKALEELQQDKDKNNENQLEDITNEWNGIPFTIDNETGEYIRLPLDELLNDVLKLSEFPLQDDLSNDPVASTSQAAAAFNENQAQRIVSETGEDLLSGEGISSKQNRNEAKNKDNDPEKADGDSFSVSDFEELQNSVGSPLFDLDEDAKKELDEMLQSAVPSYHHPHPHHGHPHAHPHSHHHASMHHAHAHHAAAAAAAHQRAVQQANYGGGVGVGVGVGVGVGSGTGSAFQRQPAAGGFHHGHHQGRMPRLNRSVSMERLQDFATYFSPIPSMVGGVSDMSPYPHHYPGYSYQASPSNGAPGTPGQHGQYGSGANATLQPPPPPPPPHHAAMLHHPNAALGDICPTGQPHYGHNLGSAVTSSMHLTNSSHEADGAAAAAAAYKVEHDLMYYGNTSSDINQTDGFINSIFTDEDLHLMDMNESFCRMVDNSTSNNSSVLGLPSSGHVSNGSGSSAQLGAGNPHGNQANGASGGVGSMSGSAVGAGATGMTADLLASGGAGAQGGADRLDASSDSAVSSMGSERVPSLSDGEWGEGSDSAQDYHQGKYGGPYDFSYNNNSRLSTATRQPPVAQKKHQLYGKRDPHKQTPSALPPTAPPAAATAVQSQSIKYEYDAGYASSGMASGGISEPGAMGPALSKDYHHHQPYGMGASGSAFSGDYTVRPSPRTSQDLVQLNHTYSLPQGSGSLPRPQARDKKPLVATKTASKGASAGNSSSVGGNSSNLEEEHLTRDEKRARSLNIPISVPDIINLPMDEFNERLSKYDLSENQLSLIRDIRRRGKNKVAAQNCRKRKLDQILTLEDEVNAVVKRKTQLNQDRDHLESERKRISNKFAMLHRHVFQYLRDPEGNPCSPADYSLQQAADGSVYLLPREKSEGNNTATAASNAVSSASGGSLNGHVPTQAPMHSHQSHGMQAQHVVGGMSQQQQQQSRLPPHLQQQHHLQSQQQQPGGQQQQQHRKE

Fs(1)h-L, the long isoform of Fs(1)h (female sterile (1) homeotic), P13709 1-2038 (natural protein; acetylated lysines (shown with a generic anti-acetyl lysine antibody; residues not named)), sequence (P13709 whole entry, canonical isoform): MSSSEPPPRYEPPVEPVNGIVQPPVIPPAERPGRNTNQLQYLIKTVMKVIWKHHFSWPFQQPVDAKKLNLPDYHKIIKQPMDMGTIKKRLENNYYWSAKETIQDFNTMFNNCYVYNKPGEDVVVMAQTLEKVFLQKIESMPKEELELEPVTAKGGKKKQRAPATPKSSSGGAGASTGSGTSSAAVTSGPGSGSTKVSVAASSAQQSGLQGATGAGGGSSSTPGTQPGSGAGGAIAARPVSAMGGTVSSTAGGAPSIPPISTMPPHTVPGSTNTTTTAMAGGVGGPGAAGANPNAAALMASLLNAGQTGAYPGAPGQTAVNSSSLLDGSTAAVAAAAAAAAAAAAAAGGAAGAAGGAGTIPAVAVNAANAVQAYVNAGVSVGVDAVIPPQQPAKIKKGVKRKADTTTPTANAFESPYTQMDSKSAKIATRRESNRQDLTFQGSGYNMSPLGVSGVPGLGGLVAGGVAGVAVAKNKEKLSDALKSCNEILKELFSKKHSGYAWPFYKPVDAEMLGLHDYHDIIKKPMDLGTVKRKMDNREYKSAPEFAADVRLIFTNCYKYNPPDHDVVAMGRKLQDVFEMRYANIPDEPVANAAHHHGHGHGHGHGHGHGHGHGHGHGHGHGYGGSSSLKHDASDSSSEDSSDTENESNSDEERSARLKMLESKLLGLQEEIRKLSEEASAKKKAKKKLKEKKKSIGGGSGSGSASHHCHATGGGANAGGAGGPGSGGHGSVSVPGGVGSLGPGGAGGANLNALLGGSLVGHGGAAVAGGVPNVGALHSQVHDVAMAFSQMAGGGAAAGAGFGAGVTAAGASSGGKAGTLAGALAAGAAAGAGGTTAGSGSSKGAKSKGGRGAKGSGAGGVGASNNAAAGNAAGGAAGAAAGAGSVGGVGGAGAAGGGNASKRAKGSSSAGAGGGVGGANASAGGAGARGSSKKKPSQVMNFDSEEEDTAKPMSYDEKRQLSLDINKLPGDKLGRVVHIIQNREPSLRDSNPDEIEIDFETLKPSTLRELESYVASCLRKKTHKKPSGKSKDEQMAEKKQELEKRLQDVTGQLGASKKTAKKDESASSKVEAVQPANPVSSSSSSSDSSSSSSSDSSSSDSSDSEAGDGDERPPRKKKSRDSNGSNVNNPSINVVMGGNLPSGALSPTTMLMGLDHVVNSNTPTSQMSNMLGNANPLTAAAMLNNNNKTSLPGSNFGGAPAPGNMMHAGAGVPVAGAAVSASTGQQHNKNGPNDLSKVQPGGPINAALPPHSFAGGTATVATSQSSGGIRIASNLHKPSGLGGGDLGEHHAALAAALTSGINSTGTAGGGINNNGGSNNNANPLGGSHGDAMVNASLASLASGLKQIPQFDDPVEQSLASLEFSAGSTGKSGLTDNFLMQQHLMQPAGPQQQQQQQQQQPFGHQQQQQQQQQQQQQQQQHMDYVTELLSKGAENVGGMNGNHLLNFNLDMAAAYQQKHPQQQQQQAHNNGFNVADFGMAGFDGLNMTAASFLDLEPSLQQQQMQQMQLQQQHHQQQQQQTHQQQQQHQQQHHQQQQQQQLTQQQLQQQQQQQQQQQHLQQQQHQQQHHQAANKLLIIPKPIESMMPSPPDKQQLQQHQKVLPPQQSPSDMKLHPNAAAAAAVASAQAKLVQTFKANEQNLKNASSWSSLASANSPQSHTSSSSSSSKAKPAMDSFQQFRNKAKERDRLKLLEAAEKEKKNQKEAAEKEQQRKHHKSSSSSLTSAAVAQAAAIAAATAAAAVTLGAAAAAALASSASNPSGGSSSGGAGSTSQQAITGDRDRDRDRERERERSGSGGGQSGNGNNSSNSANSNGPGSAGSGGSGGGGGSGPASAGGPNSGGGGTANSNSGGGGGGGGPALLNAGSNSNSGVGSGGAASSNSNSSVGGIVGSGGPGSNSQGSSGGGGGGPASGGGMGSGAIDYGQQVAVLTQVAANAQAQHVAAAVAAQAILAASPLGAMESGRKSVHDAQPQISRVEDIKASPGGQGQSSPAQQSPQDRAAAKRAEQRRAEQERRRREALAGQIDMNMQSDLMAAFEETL

ARE-fluc reporter activity in S2 cells treated with 1μM JQ1 for 24 hrs, fold change relative to controls: 6.5 fold
Substance: Fs(1)h-L, the long isoform of Fs(1)h (female sterile (1) homeotic), P13709 1-2038 (natural protein; acetylated lysines (shown with a generic anti-acetyl lysine antibody; residues not named))
